From patent publication US20230030314A1, “Method for Diagnosing Cancer, Cancer Diagnosis Composition, Cancer Diagnosis Kit, Method for Evaluating State of Cancer, and Method for Screening Agents for Preventing and/or Treating Cancer” (Kyushu University, National University Corporation, priority 2019, published 2023) come the findings set out here.

This test concerns the target T1, PKCα (Homo sapiens, UniProt P17252).
T1 construct: endogenous in cells; host or cells: KU-1, KU-7, T24, TCCSUP, UMUC-3 bladder cancer cells
As to the kind of experiment: Phosphorylation of substrate peptide in bladder cancer-derived culture cells, MALDI-TOF MS. In kind it is biochemical. The conditions noted are these: bladder cancer-derived culture cells KU-1, KU-7, T24, TCCSUP, UMUC-3 (0.2 mg/ml cells); 30 μM peptide, 100 μM ATP, 37° C., 60 minutes. Here is the method:
An α-cyano-4-hydroxycinnamic acid (CHCA) matrix (10 mg/ml) was prepared in 50% water/acetonitrile and 0.1% TFA. This matrix and a sample were mixed in a ratio of 20:1. The resultant specimen/matrix mixture in a total volume of 1 μl was applied on a sample plate, and the resultant was crystallized by drying. In this example, Auto Flex Speed manufactured by Bruker was used in positive or negative mode. An acceleration voltage was set to 20 kV, and extraction delay time was set to 100 ns. Typically, 100 laser shots were averaged to improve a signal/noise ratio. All spectra were analyzed with Flex Analysis software (Bruker). A phosphorylation percentage was defined as an ionic strength ratio between a phosphorylated substance and a non-phosphorylated substance, and was calculated in accordance with existing description (Kang, J. -H. et al., (2007) J. Am. Soc. Mass Spectrom. 18, 106-112; and Kang J. -H. et al., (2007) J. Am. Soc. Mass Spectrom. 18, 1925-1931). In order to examine whether or not the PKCα specific substrate peptide could be phosphorylated by bladder cancer, culture cells derived from 5 different bladder cancers (KU-1, KU-7, T24, TCCSUP, and UMUC-3) were analyzed by MALDI-TOF MS. […] After performing incubation at 37° C. for 60 minutes, the resultant sample was analyzed by MALDI-TOF MS.

Ends that are not written are not given here.

Consider FKKQGSFAKKK-NH2 [substrate peptide], for which the “phosphorylation percentage of the substrate peptide” value is on record as “high phosphorylation percentages”.
